# Target: lectin SNA1 from Sambucus nigra (Sambucus nigra) (UniProt Q41358)
# Sequence (Q41358 29-289 limits assumed, chain 1 of 2): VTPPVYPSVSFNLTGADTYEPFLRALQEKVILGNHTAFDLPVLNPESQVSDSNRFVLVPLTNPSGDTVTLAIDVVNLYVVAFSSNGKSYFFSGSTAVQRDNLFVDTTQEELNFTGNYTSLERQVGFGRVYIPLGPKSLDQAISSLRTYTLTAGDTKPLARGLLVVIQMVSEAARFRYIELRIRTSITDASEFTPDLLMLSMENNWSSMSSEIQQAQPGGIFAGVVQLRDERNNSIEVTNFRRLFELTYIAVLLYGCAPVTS
# Sequence (Q41358 309-570 limits assumed, chain 2 of 2): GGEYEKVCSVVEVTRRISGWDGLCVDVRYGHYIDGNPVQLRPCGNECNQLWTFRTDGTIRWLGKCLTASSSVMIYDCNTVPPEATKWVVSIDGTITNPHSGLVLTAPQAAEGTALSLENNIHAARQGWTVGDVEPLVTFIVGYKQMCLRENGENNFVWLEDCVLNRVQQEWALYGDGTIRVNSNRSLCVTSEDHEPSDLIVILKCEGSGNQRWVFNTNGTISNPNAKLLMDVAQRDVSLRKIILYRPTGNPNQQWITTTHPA
# Sequence of fetuin (P12763 19-359): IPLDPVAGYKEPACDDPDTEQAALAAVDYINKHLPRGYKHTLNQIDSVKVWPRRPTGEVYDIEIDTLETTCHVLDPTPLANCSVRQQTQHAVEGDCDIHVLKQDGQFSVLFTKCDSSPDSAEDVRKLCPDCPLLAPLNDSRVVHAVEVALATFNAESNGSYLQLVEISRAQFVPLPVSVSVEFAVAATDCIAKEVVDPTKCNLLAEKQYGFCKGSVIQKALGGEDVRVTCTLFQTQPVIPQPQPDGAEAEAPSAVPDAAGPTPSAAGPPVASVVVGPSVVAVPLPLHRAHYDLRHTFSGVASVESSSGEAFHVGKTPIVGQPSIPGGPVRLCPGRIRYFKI
substance,measurement,value
fetuin (from UniProt P12763 19-359),amount of fetuin giving essentially complete inhibition of SVH1C binding (pmoles per well),500
same,percent inhibition of SVH1C binding at 100 pmoles fetuin per well,50%

# — US20150299255A1
